In patent US6355481B1, “Hybridoma cell line and monoclonal antibody for huntingtin protein” (Emory University, priority 1999, dated 2002):

B1: CNTF: ciliary neurotrophic factor (protein, UniProt P26441 1-200, looked up)
Ciliary neurotrophic factor: MAFTEHSPLTPHRRDLCSRSIWLARKIRSDLTALTESYVKHQGLNKNINLDSADGMPVASTDQWSELTEAERLQENLQAYRTFHVLLARLLEDQQVHFTPTEGDFHQAIHTLLLQVAAFAYQIEELMILLEYKIPRNEADGMPINVGDGGLFEKKLWGLKVLQELSQWTVRSIHDLRFISSHQTGIPARGSHYIANNKKM
B2: HD-23Q: N-terminal region of human huntingtin (amino acids 1-253) with 23 glutamines, expression construct (protein)
chain: MATLEKLMKAFESLKSFQQQQQQQQQQQQQQQQQQQQQPPPPPPPPPPPQLPQPPPQAQPLLPQPQPPPPPPPPPPGPAVAEEPLHRPKKELSATKKDRVNHCLTICENIVAQSVRNSPEFQKLLGIAMELFLLCSDDAESDVRMVADECLNKVIKALMDSNLPRLQLELYKEIKKNGAPRSLRAALWRFAELAHLVRPQKCRPYLVNLLPCLTRTSKRPEESVQETLAAAVPKIMASFGNFANDNEIKVLLK
B3: HAP1-A: huntingtin-associated protein isoform expressed from cloned cDNA in pCIS vector transfected into PC12 cells (protein)
chain: MRPKDQVQSSAGDGTGSGDPATGTPTTQPAADPAPEPSAEPKPAPAQGTGSGQKSGSRTKTGGSFCRSRIRGDSDAPWTRYIFQGPYGPRATGLGTGRAEGIWKTPAAYIGRRPGVSGPERAAFIRELQEALCPNPLPRKKITEDDIKVMLYLLEEKERDLNTAARIGQSLVKQNSVLMEENNKLETMLGSAREEILHLRKQVNLRDDLLQLYSDSDDDEEDEEDEEEEEGEEEEREGQRDQDQQHDHPYGAPKPPPKAETLHHCPQLEALKQKLKLLEEENDHLREEASHLDNLEDKEQMLILECVEQFSEASQQMAELSEVLVLRLEGYERQQKEITQLQAEITKLQQRCQSYGAQTEKLQQQLASEKGVHPESLRAGSHMQDYGSRPRERQEDGKSHRQRSSMPAGSVTHYGYSVPLDALPSFPETLAEELRTSLRKFITDPAYFMERCDTRCREERKKEQGTMPPPPVQDLKPPEDFEAPEELVPEEELGAIEEVGTAEDGPAEETEQASEETEAWEEVEPEVDEATRMNVVVSALEASGLGPSHLDMKYVLQQLSNWQDAHSKRQQKQKVVPKGECSRRGHPPASGTSYRSSTL

What was measured:
parental PC12 cells = assay: Neurite outgrowth assay, parental PC12 cells; type: cell-based, rat; settings: control/parental PC12 cells; IL-6 20 ng/ml, CNTF 20 ng/ml, EGF 10 ng/ml, bFGF 20 ng/ml
Method: To evaluate neurite outgrowth, we plated the cells at low density (2×10^4 Cells/cm^2) onto six-well plates. Cell cultures were treated with NGF (100 ng/ml) for 48 hr or with staurosporine (50-100 nM) and EGF (10 ng/ml) for 16 hr and were fixed with 4% paraformaldehyde in PBS for 15 min. After several washes with PBS, cells with neurites exceeding the cell diameter were counted using an inverted microscope (Olympus Optical CK2, Tokyo, Japan). At the same time, five to seven images (10×) were captured by a Pixera camera, and the percentage of cells with neurites was confirmed by analyzing these images. On average, 500-800 cells were counted for each group.

PC12 cells = assay: Transfection of PC12 cells, immunofluorescence: neurites and perinuclear inclusions; type: cell-based, rat; settings: for transfected cells with neurites: neurites exceeding two body diameters, vector alone 4.7%
Method: cDNA constructs and transfection of cells. Cloned HAP1-A and HAP1-B cDNAs were inserted into the expression vector pCIS (Li et al., 1995) carrying the cytomegalovirus promoter. The expression constructs encoding N-terminal human huntingtin (253 amino acids) with 23, 73, or 120 glutamines were obtained in a previous study (Li and Li, 1998). PC12 cells were plated onto two-well chamber slides at a density of 50,000/cm^2 and cultured for 24 h. Two micrograms of plasmid DNA was then added to each well in a 1-ml solution containing Lipofectamine (10 μg/ml), yielding 3-8% transfected cells. Following 18-24 h transfection, the media were replaced with fresh growth media and the cells were grown for another 24 h before immunofluorescent staining. The immunostaining images were captured using a 3CCD camera video system. Neurite length was measured as cell body diameters. The average sizes (μm) of perinuclcar huntingtin inclusions were obtained by measuring the diameters of inclusions in 58-112 cells transfected with huntingtin alone. The percentage of transfected cells with neurites that exceeded two body diameters was obtained by counting 200-300 transfected cells in three independent experiments. For double transfection, equal amounts (2 μg for each) of HAP1-A and huntingtin cDNAs were transfected into PC12 cells in each well of six-well dishes. The transfected cells were immunostained with the rabbit polyclonal antibody for HAP1-A and mouse monoclonal antibody for huntingtin.

Row | Molecule | neurite outgrowth promoted by growth factor (parental PC12 cells) | cells with elongated neurites (PC12 cells; double transfection with HAP1-A, HAP1-A alone 29.4%) [%] | transfected cells with neurites (PC12 cells; single transfection) [%] | length of the neurites (PC12 cells; single transfection) [body diameters]
1 | B1 | did not promote neurite outgrowth | – | – | –
2 | B2 | – | 24.6 | 5.1 | –
3 | B3 | – | – | 29.4 | 3.8
